In patent US20040018971A1 (published 2004):

Tests used:
[1] = target: T1, HLA-A*0301 (purified HLA class I molecule) (human); test: competition with 125I-labelled probe peptide for purified HLA-A*0301, gel filtration
T1 construct: also called HLA-A3

[2] = target: HLA-A*0301 (purified HLA class I molecule) (human); test: competition with 125I-labelled probe peptide on purified HLA-A*0301, gel filtration
[3] = target: HLA-B*3501 (human); test: competition with 125I probe peptide, purified HLA
[4] = target: HLA-B*5301 (human); test: competition with 125I probe peptide, purified HLA
[5] = target: HLA-B*5401 (human); test: competition with 125I probe peptide, purified HLA
[6] = target: HLA-B*5101 (human); test: competition with 125I probe peptide, purified HLA
[7] = target: HLA-B*0702 (human); test: competition with 125I probe peptide, purified HLA
[8] = target: HLA-B*5401 (human); test: competition vs 125I-labelled probe peptide, purified HLA, gel filtration
[9] = target: HLA-B*5101 (human); test: as above
[10] = target: HLA-B*3501 (human); test: as above
[11] = target: HLA-B*0702 (human); test: as above
[12] = target: HLA-B*5301 (human); test: as above

ALESILRRR (also called Her2/neu.890 9-mer) [HER2/neu peptide, position 890, 9 amino acids (ALESILRRR)]
relative binding ratio [1]: 0.0013 ratio (IC50 of standard peptide / IC50 of test peptide)

SMPNPEGRY (Synthetic peptide) [HER2/NEU A03 motif peptide, position 281, 9 amino acids]
relative binding ratio (IC50 of standard peptide / IC50 of test peptide) [2]: 0.0002 ratio

FPSGVKPDI (analog peptide) [Her2/neu.600.F1I9]
IC50 [3]: 9000 nM
IC50 [4]: 930 nM
IC50 [5]: 44 nM
IC50 [6]: 204 nM
IC50 [7]: 6.3 nM

RVLQGLPREY (Synthetic peptide) [HER2/NEU A03 motif peptide, position 545, 10 amino acids]
relative binding ratio (IC50 of standard peptide / IC50 of test peptide) [2]: 0.035 ratio

B1: Her2/neu.921.F1I11 (peptide)
peptide: FPYDGIPAREI
notes: 11-mer B7 supermotif analog of the HER2/neu peptide starting at position 921
IC50 [8]: 15 nM
IC50 [9]: 50 nM
IC50 [10]: 2880 nM
IC50 [11]: 141 nM
IC50 [12]: 465 nM

B2: Her2/neu.1073.F1I9 (peptide)
peptide: FPLAPSEGI
notes: 9-mer analog of the HER2/neu peptide starting at position 1073
IC50 [8]: 5.9 nM
IC50 [9]: 204 nM
IC50 [10]: 554 nM
IC50 [11]: 100 nM
IC50 [12]: 239 nM

B3: Her2/neu.966.F1I11 (peptide)
peptide: FPRFRELVSEI
notes: 11-mer analog of the HER2/neu peptide starting at position 966
IC50 [8]: 28 nM
IC50 [9]: 167 nM
IC50 [10]: 240 nM
IC50 [11]: 229 nM

RILKETELRK (Synthetic peptide) [HER2/NEU A03 motif peptide, position 713, 10 amino acids]
relative binding ratio (IC50 of standard peptide / IC50 of test peptide) [2]: 0.057 ratio

B4: Her2/neu.1151.F1I10 (peptide)
peptide: FPREGPLPAI
notes: 10-mer analog of the HER2/neu peptide starting at position 1151
IC50 [8]: 3.4 nM
IC50 [9]: 20 nM
IC50 [10]: 7200 nM
IC50 [11]: 20 nM
IC50 [12]: 620 nM

FPDLSYMPI (analog peptide) [Her2/neu.605.F1]
IC50 [3]: 167 nM
IC50 [4]: 72 nM
IC50 [5]: 31 nM
IC50 [6]: 10 nM
IC50 [7]: 22 nM

CVNCSQFLR (also called Her2/neu.528 9-mer) [HER2/neu peptide, position 528, 9 amino acids (CVNCSQFLR)]
relative binding ratio [1]: 0.0015 ratio (IC50 of standard peptide / IC50 of test peptide)

CLLDHVRENR (also called Her2/neu.805 10-mer) [HER2/neu peptide, position 805, 10 amino acids (CLLDHVRENR)]
relative binding ratio [1]: 0.0003 ratio (IC50 of standard peptide / IC50 of test peptide)

B5: Her2/neu.1157.F1I11 (peptide)
peptide: FPAARPAGATI
notes: 11-mer analog of the HER2/neu peptide starting at position 1157
IC50 [8]: 50 nM
IC50 [9]: 13 nM
IC50 [10]: 4240 nM
IC50 [11]: 39 nM
IC50 [12]: 332 nM

B6: Her2/neu.1157.F1 (peptide)
peptide: FPAARPAGATL
notes: as for B5
IC50 [9]: 239 nM
IC50 [10]: 360 nM
IC50 [11]: 3.9 nM
IC50 [12]: 2910 nM

FPHQALLHTI (analog peptide) [Her2/neu.488.F1I10]
IC50 [3]: 655 nM
IC50 [4]: 42 nM
IC50 [5]: 4 nM
IC50 [6]: 19 nM
IC50 [7]: 86 nM

ASCVTACPY [HER2/neu peptide, position 293, 9 amino acids (ASCVTACPY)]
relative binding ratio [1]: 0.0008 ratio (IC50 of standard peptide / IC50 of test peptide)

RILKETELR (Synthetic peptide) [HER2/NEU A03 motif peptide, position 713, 9 amino acids]
relative binding ratio (IC50 of standard peptide / IC50 of test peptide) [2]: 0.0007 ratio

B7: Her2/neu.1155.F1 (peptide)
peptide: FPLPAARPA
notes: 9-mer analog of the HER2/neu peptide starting at position 1155
IC50 [8]: 1.5 nM
IC50 [9]: 1900 nM
IC50 [10]: 277 nM
IC50 [11]: 34 nM

B8: Her2/neu.1155.F1I9 (peptide)
peptide: FPLPAARPI
notes: as for B7
IC50 [8]: 3.8 nM
IC50 [9]: 7.1 nM
IC50 [10]: 600 nM
IC50 [11]: 6.5 nM
IC50 [12]: 282 nM

CVTACPYNY (also called Her2/neu.295 9-mer) [HER2/neu peptide, position 295, 9 amino acids (CVTACPYNY)]
relative binding ratio [1]: 0.0002 ratio (IC50 of standard peptide / IC50 of test peptide)

ALTLIDTNR (also called Her2/neu.180 9-mer) [HER2/neu peptide, position 180, 9 amino acids (ALTLIDTNR)]
relative binding ratio [1]: 0.0004 ratio (IC50 of standard peptide / IC50 of test peptide)

RLVHRDLAAR (Synthetic peptide) [HER2/NEU A03 motif peptide, position 840, 10 amino acids]
relative binding ratio (IC50 of standard peptide / IC50 of test peptide) [2]: 0.18 ratio

B9: HER2/NEU A03 motif peptide, position 402, 10 amino acids (peptide)
peptide: TLEEITGYLY
notes: Synthetic peptide; also called Her2/neu.402
relative binding ratio (IC50 of standard peptide / IC50 of test peptide) [2]: 0.0001 ratio

TIDVYMIMVK (Synthetic peptide) [HER2/NEU A03 motif peptide, position 948, 10 amino acids]
relative binding ratio (IC50 of standard peptide / IC50 of test peptide) [2]: 0.013 ratio

CAGGCARCK (also called Her2/neu.220 9-mer) [HER2/neu peptide, position 220, 9 amino acids (CAGGCARCK)]
relative binding ratio [1]: -0.0002 ratio (IC50 of standard peptide / IC50 of test peptide)
